Test results from patent US20220195015A1 (published 2022).

Target: SARS-CoV-2 spike receptor binding domain (RBD), wild type (SARS-CoV-2, UniProt P0DTC2 319-539)
Test: ELISA on coated RBD protein

Binder | EC50
C044 (antibody, V domains shown) VH: EVQLVESGGGLVQPGGSLRLSCAASGFTFSSYSMNWVRQAPGKGLEWVSYISSSSSTIYYADSVKGRFTISRDNAKNSLYLQMNSLRDEDTAVYYCAREAHDGALTDYGDYLNWFDPWGQGTLVTVSS VL: SYELTQPPSVSVAPGKTARITCGGNNIGSKSVHWYQQKPGQAPVLVIYYDSDRPSGIPERFSGSNSGNTATLTISRVEAGDEADYYCQVWDSSSDHLYWVFGGGTKLTVL | 1820 ng/mL
C045 (antibody, V domains shown) VH: EVQLVESGGGLVQPGGSLRLSCAASGFTFSTYSMNWVRQAPGKGLEWVSYISSSSSTIHYADSVKGRFTISRDNAKNSLYLQMNSLRDEDTAVYYCAREAHDGALTDYGDYLNWFDPWGQGTLVTVSS VL: SYELTQPPSVSVAPGKTARITCGGTNIGSKNVHWYQQKPGQAPVLVIYYDNDRPSGIPERFSGSNSGNTATLTISRVEAGDEADYYCQVWDTTSDHFYWVFGGGTKLTVL | 7 ng/mL
C095 (antibody, V domains shown) VH: VQLVEAGGGVVQPGRSLRLSCAASGLAFSIYGMHWVRQAPGKGLEWVAIVAQDGSKKYYADSVKGRFTISRDNSKNTLYLEMNSLRTEDTAVYYCVKEGRPSDTVVVVAFDYWGQGSLVTVSS VL: DIQLTQSPSSLSASVGDRVTITCRASQSISNYLNWYQQKPGKAPKVIIYAASSLQSGVPSRFSGSGSGTDFTLTISSLQPEDFATYYCQQSHSIPRTFGQGTKVEIK | 1.1 ng/mL
C047 (antibody, V domains shown) VH: QVQLQESGPGLVKPSETLSLTCTVSGGSISSTTYYWDWIRQSPGKGLEWIGSIFYTGITYYSPSLKSRVTISVDTSKNQFSLRLNSMTAADTAVYYCARRLRQLWFGPWFDPWGQGTLVTVSS VL: QSALTQPPSASGSPGQSVTISCTGTRSDVGDYNYVSWYQQHPDKAPKLIIYEVTKRPSGVPDRFSGSKSGNTASLTVSGLQAEDEADYYCSSYAGSNNVMFGGGTKLTVL | 11.1 ng/mL
C710 (antibody, V domains shown) VH: QVQLQESGPGLVKPSETLSLTCIVSGGSINSTTYYWDWIRQSPGKGLEWIGSIFYTGITYYSPSLKTRVTISVDTSKNQFSLRLNSMTAADTAVYYCARRLRQLWFGPWFDPWGQGTLVTVSS VL: QSALTQPPSASGSPGQSVTISCTGTRSDVGDYNYVSWYQQHPDKAPKLIIFEVTKRPSGVPDRFSGSKSGNTASLTVSGLQAEDEADYYCSSYAGSSNVMFGGGTKLTVL | 17.8 ng/mL
C706 (antibody, V domains shown) VH: EVQLVESGGGLVKPGGSLRLSCAASGFTFSNVWMSWVRQAPGKGLEWVGRIKSKIDGGTTEYAAPVKGRFIISRDDSKNTLSLQMNSLKTEDTAVYYCTTDHGREPPVHWGQGTLVTVSS VL: EIVLTQSPGTLSLSPGERASLSCRARQSVYSNYLAWYQHKSGQAPRLLFYGASSRATDIPDRFSASGSGTDFTLTISRLEPEDFAVYYCLQYGPSPTFGPGTRLEIK | 73.5 ng/mL
C097 (antibody, V domains shown) VH: QVQLQESGPGLVKPSQTLSLTCTVSGGSISSGPYYWSWIRQHPGKGLEWIGYIYYSGSTYYNPSLKSRVTISVDTSKKQFSLNLNSVTAADTAVYYCARVWQYYDSTGSFDYWGQGTLVTVSS VL: DIVMTQSPLSLPVTPGEPASISCRSSRGLLHSNGYNYLDWYLQKPGQSPQLLIYLGSNRASGVPDRFSGSGSVTDFTLNISRVEAEDVGVYYCMQALQTPFTFGPGTKVDIK | 3.45 ng/mL
C049 (antibody, V domains shown) VH: QVQLQESGPGLVKPSETLSLTCTVSGGSVSSGTFYWSWIRQPPGKGLEWIGYIHYSGSTNYNPSLKSRVTISVDTSKNQFSLRLSSVTAADTAVYYCARESFYYDRSGYYGSDAFDIWGQGTMVTVSS VL: DIQMTQSPSTLSSSVGDRVTITCRASQNISRWLAWYQQKPGKAPKLLIYKASTLESGVPSRFSGSGSGTKFTLTISSLQPDDFATYYCQQYNSYLYTFGQGTKLEIK | 4.09 ng/mL
C048 (antibody, V domains shown) VH: VQLQESGPGLVKPSETLSLTCAVSGGSVSSGNYYWNWIRQPPGKGLEWIGYIYYSGSTNYNPSLKSRVTISVDTSKNQFSLKLNSVTAADTAVYHCARETYYYDSSGYYISDAFDIWGQGTMVTVSS VL: not shown | 4.8 ng/mL
C096 (antibody, V domains shown) VH: EVQLVESGGGLVKPGGSLRLSCVASGFTFRNAWMNWVRQAPGKGLEWVGRIKANSDGGTIDYAEPVQGRFTISREDSRNSLYLQMNSLKTEDTAVYYCTTGPQYDDFGHSYIVDSWGPGTLVTVSS VL: DIVMTQSPLSLPVTLGEPASISCRSSQSLLHSNGFHFLEWYLQKPGQSPQLLIYVGSNRASGVPDRFSGSGSGTDFTLKISRVEAEDVGVYYCMQTLQTPLTFGGGTKVEIK | 5.18 ng/mL
C703 (antibody, V domains shown) VH: EVQLLESGGGLVQPGGSLRLSCAGSGFTFSHYALSWVRQAPGKGLEWVSCISGTGGNSHYADSVKGRFTSSRDNSKNILYLQMNSLRAEDTAVYFCAKGGDFWSGYLIPFDSWGQGTLVTVSS VL: SYELTQSPSVSVAPGKTARITCGGDSIGSKNVHWYQQKPGQAPVLVMYYDNDRPSGIPERFSGYNSGNTATLSISRVEAGDEADYYCLVWDGSGDPWVFGGGTKLTVL | 10.9 ng/mL
C043 (antibody, V domains shown) VH: QLVQSGPEVKKPGTSVKVSCKASGFTFYNSAVQWVRQARGQRLEWVGWIVVGSGNTDYAQKFQERVTMTRDLSTNTAYMEVNSLRSEDTAVYYCAAPYCSGGTCLDGFDIWGQGTMVTVSS VL: EIVLTQSPGTLSLSPGERGTLSCRASQSVRSNYLAWYKQRPGQAPRLLVYGASSRATGIPDRFSGSGSGTDFTLTISRLEPEDFAVYYCQQYGSSPWTFGQGTKVEIK | 12.1 ng/mL
C704 (antibody, V domains shown) VH: VQLVESGGGVVQPGRSLRLSCAASGFTFSRYGMHWVRQAPGKGLEWVAVSSYDGSNEYYANSVKGRFTISRDNSKNTLYLQMNSLRAEDTAVYYCAKTGASYCGGDCPFHFDYWGQGTLVTVSS VL: IRMTQSPSSLSASVGDRVTITCQASQDINNYLNWYQQKPGKAPKLLIYDASDLETGVPSRFSGGGSGTDFTFTISSLQPEDIATYYCQHYNNLPITFGQGTRLEIK | 13.4 ng/mL
C098 (antibody, V domains shown) VH: EVQLVESGGGLIQPGGSLRLSCAASGFTVSSNYMSWVRQAPGKGLEWVSVIYSGGSTYYADSVKGRFTISRDNSKNTLYLQMNSLRAEDTAVYYCARDLYSSGGTDIWGQGTMVTVSS VL: not shown | 7.7 ng/mL
C099 (antibody, V domains shown) VH: EVQLVESGGGLIQPGGSLRLSCAASGITVSSNYMSWVRQAPGKGLEWVSVMYAGGSTFYADSVKGRFTISRDDSKNTLFLQMNSLRAEDTAIYYCARDLYSSGGTDIWGQGTMVTVSS VL: EIVLTQSPGTLSLSPGERATLSCRASQSIGSSYLAWYQQKPGLAPRLLIYGASRRATGIPDKFSGSGSGADFTLTISRLEPEDFAVYYCQQYGSSPGTFGQGTKVEIK | 2.45 ng/mL
C046 (antibody, V domains shown) VH: EVQLVESGGGLAQPGRSLRLSCAASGFTFDDYAMHWVRQAPGKGLEWVSGINWNSGSLGYADSVKGRFTISRGIAKNSLYLQMNSLRPEDTAFYYCAKAGVRGIAAAGPDLNFDYWGQGTLVTVSS VL: EIVLTQSPATLSLSPGERATLSCRASQSVSSYLAWYQQKPGQAPRLLIYDASNRATGIPARFIGSGSGTDFTLTISSLEPEDFAVYYCQQRITFGQGTRLEIK | 4.02 ng/mL
